This passage reports remaining activity and Kd results from publication PMC8307404, “Crystal Structure-Guided Design of Bisubstrate Inhibitors and Photoluminescent Probes for Protein Kinases of the PIM Family” (Molecules, 2021).

One data set concerns the target T1, ZAP70 (Homo sapiens, UniProt P43403).
T1 sequence (P43403 1-619): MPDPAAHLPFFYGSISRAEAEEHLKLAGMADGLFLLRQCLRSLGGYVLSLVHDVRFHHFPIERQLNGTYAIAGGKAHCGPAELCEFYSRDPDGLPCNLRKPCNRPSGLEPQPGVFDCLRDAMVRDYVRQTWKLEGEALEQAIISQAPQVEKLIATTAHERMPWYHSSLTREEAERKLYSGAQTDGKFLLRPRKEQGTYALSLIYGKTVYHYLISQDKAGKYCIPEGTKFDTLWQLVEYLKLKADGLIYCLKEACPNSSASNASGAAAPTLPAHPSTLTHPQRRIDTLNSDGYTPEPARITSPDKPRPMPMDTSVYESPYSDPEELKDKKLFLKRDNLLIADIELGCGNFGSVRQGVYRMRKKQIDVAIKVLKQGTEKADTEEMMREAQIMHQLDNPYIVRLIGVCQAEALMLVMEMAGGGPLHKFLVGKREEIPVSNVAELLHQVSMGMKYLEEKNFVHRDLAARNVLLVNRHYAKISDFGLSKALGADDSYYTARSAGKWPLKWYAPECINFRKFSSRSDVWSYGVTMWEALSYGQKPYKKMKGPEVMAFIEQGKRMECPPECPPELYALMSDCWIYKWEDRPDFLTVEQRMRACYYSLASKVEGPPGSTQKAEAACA
The experiment in a line: Kinase profiling (radiometric filter-binding). The class given is biochemical. The conditions noted are these: ZAP70, 1 µM inhibitor; read-out: Residual activity, %. The protocol:
(§1) Kinase selectivity profiling was performed using the commercial service provided by the MRC PPU International Centre for Kinase Profiling (Dundee, UK) using a radiometric filter-binding assay. Kinases used for analysis were of human origin. The ATP concentration applied for inhibition measurements was at or below the ATP KM value of the particular PK. ARC-3125 and ARC-3126 were screened against 139 PKs, whereas compounds 1, 2, and 8 were screened against 140 PKs. The final total concentration of inhibitors in the selectivity panel was 1 µM. Residual activities were expressed as the percentage of retained activity compared to the control without inhibitor.

The next data set has as its target MLK3 (Homo sapiens, UniProt Q16584). Briefly: Kinase profiling (radiometric filter-binding). The data set is classed as biochemical. The following applies: MLK3, 1 µM inhibitor; read-out: Residual activity, %. The method, then: as §1
The target in another data set is p38 MAPK (Homo sapiens, UniProt Q16539). Briefly: Kinase profiling (radiometric filter-binding). The class given is biochemical. The conditions noted are these: first of four lines (Greek letter lost), 1 µM inhibitor, read-out: Residual activity, %. The method, then:
as §1

The target of the next data set is TTBK2 (Homo sapiens, UniProt Q6IQ55). The experiment in a line: Kinase profiling (radiometric filter-binding). The conditions noted are these: TTBK2, 1 µM inhibitor; read-out: Residual activity, %. The data set is classed as biochemical. The method, then: as §1
A further data set concerns the target SIK2 (Homo sapiens, UniProt Q9H0K1). Briefly: Kinase profiling (radiometric filter-binding). The data set is classed as biochemical. The conditions noted are these: SIK2, 1 µM inhibitor; read-out: Residual activity, %. The protocol: as §1
The target in the next data set is T2, DYRK3 (Homo sapiens, UniProt O43781).
T2 sequence (O43781 1-588): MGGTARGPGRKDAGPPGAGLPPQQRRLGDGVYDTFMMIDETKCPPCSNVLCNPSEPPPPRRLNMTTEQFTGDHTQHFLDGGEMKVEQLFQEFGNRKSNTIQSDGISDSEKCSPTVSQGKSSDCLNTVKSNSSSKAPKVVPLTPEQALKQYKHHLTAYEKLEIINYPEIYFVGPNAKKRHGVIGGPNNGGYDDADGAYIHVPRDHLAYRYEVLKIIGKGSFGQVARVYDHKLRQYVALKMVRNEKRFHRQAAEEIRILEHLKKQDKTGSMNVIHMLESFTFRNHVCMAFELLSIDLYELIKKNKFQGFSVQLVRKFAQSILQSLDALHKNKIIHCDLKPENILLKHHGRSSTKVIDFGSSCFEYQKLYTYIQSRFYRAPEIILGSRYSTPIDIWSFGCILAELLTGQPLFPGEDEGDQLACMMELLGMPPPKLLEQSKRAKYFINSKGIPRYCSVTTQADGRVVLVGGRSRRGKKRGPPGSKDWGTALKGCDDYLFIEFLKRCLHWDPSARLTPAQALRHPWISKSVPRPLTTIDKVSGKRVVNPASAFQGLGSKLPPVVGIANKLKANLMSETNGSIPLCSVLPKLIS
Briefly: Kinase profiling (radiometric filter-binding). The class given is biochemical. The following applies: DYRK3, 1 µM inhibitor; read-out: Residual activity, %. The method, then: as §1

Another data set has as its target ERK5 (Homo sapiens, UniProt Q13164). Briefly: Kinase profiling (radiometric filter-binding). The data set is classed as biochemical. The following applies: ERK5, 1 µM inhibitor; read-out: Residual activity, %. The method, then:
as §1

Another data set concerns the target PIM1 (Homo sapiens, UniProt P11309). The experiment in a line: Binding/displacement assay with FA or TGLI readout. The arrangement: made in house. The following applies: KD, nM (PIM-1), TGLI or FA readout; mean ± SEM, N = 2.
The next data set deals with T3, PKAcα (Homo sapiens, UniProt P17612).
T3 construct: purchased Biaffin GmbH & Co KG (Kassel, Germany)
Briefly: Binding/displacement assay with FA or TGLI readout. The protocol:
The affinities of the compounds toward the PIM family PKs were determined in a binding/displacement assay with measurement of fluorescence anisotropy (FA) and time-gated luminescence intensity (TGLI) (Table 2). For the initial assessment of the selectivity of compounds, PKAcα was used as the reference basophilic kinase.
Optical FA measurement modules for 5-TAMRA-labeled compounds (ex. 540(20) nm, em. 590(20) nm and 590(20) nm), for Cy5-labeled compounds (ex. 590(50) nm, em. 675(50) nm and 675(50) nm), and optical TGLI measurement modules for ARC-1451 (ex. 330(60) nm, em. 590(50) nm), for ARC-1188 (ex. 330(60) nm, em. 675(50) nm) were used for assays with PHERAstar microplate reader (BMG Labtech; Ortenberg, Germany). TGLI measurements were performed with a delay time of 50 μs and integration of the signal for 150 μs. In each measurement, emission from 200 flashes of excitation radiation was collected. The measurement solutions (20 µL volumes) were prepared in black 384-well low-binding surface microtiter plates (Corning #4514; Kennebunk, ME, USA) and incubated for 20 min at 30 °C before the measurements. The assay buffer contained HEPES hemisodium salt (pH 7.4, 50 mM), NaCl (150 mM), dithiothreitol (5 mM), bovine serum albumin (0.5 mg/mL), and Tween-20 (0.005%). GraphPad Prism v. 5.04 (GraphPad Software, Inc.) was used for data analysis with FA [32] or TGLI [33] readouts. Representative titration curves can be found in Supplementary Figure S7.

The target of a further data set is PIM2 (Homo sapiens, UniProt Q9P1W9). Briefly: Binding/displacement assay with FA or TGLI readout. The arrangement: made in house. The conditions noted are these: mean ± SEM, N = 2.
A further data set has as its target PIM3 (Homo sapiens, UniProt Q86V86). The experiment in a line: Binding/displacement assay with FA or TGLI readout. The arrangement: made in house. The following applies: mean ± SEM, N = 2.
Setting [1] is: TGLI or FA readout, mean ± SEM, N = 2, read-out: KD, nM (PKAcα).

Read-outs that look alike come from different tables or passages of the source. Square brackets hold non-standard residues; d marks the D form. Peptide text beside a SMILES is read from it. * marks the point of attachment. X3 = O=C(CCCCCNCc1nc2c(sc3cc(Br)cnc32)c(=O)[nH]1)*

One may read the Kd as the constant that tells how readily two partners part at equilibrium.

MLK3, sequence (Q16584 whole entry): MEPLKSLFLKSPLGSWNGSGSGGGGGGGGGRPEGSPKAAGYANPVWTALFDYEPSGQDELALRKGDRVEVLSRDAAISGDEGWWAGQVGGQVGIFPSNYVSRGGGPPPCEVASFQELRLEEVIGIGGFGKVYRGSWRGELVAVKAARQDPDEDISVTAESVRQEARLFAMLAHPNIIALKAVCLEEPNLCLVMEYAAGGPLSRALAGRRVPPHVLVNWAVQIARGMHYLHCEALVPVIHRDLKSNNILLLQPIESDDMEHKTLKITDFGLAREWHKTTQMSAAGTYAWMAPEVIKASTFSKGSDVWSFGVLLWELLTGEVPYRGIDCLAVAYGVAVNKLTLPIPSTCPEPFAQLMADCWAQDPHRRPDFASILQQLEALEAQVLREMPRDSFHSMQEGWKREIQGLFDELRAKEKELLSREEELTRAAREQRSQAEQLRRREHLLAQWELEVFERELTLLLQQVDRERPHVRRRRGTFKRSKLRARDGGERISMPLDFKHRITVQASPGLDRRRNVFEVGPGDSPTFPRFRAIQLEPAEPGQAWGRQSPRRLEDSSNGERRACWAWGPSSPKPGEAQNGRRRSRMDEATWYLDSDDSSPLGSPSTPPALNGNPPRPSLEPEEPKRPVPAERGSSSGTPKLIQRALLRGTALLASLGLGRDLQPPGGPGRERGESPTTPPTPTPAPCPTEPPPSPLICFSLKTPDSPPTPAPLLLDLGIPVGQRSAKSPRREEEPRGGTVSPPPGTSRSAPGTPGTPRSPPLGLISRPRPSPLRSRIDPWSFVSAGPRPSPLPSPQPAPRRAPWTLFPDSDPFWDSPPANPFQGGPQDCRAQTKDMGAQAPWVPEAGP
ERK5, sequence (Q13164 whole entry): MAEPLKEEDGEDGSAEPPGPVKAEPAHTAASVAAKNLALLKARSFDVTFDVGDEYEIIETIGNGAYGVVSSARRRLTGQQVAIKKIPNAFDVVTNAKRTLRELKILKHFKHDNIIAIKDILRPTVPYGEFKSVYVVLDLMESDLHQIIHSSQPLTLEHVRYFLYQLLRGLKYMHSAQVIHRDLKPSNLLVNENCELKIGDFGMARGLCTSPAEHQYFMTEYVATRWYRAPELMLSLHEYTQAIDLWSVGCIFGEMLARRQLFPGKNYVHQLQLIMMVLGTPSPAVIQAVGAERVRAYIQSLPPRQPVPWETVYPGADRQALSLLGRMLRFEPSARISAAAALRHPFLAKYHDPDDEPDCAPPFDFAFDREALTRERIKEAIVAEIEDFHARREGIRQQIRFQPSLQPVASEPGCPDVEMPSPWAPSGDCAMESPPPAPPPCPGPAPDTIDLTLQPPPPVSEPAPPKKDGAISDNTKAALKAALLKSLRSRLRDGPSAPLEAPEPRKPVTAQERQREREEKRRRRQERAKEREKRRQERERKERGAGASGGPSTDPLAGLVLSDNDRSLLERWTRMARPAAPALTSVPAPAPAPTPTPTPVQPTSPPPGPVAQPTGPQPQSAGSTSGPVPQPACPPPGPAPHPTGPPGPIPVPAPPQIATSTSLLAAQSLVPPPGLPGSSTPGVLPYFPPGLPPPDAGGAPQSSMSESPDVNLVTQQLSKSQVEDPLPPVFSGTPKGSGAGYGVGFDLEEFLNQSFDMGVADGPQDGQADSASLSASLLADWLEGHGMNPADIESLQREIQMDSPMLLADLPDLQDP
TTBK2, sequence (Q6IQ55 whole entry): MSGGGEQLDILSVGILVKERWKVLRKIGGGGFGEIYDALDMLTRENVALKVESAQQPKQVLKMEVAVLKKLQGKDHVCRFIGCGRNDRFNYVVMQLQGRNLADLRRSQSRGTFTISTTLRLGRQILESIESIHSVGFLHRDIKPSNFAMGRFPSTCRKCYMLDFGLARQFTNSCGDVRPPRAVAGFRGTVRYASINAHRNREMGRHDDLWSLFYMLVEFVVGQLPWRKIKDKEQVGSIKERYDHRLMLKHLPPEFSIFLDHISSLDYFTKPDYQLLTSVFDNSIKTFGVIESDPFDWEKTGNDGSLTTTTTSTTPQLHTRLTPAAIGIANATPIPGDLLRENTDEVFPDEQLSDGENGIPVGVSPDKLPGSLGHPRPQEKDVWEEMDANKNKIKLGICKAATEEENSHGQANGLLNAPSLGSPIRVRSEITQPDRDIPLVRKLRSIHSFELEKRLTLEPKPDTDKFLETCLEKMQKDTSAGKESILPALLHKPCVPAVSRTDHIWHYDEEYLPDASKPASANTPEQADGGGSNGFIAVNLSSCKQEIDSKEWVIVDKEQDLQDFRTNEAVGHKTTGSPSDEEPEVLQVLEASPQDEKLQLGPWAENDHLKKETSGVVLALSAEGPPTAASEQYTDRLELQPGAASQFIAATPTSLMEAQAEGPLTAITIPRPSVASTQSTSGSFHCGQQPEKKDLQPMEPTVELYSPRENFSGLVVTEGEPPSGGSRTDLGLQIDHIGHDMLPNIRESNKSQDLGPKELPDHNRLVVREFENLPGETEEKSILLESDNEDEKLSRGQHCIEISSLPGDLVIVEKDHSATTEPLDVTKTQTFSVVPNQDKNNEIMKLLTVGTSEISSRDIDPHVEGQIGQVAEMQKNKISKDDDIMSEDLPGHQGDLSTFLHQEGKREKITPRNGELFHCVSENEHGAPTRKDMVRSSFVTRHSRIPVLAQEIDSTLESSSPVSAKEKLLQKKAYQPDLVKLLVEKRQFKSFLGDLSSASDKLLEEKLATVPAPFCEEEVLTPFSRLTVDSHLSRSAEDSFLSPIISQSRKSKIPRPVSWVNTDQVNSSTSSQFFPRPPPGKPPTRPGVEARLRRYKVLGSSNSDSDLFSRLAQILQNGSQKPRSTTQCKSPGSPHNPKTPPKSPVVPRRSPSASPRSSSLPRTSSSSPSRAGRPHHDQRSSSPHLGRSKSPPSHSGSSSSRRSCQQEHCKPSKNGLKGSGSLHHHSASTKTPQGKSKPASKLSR
PIM2, sequence (Q9P1W9 whole entry): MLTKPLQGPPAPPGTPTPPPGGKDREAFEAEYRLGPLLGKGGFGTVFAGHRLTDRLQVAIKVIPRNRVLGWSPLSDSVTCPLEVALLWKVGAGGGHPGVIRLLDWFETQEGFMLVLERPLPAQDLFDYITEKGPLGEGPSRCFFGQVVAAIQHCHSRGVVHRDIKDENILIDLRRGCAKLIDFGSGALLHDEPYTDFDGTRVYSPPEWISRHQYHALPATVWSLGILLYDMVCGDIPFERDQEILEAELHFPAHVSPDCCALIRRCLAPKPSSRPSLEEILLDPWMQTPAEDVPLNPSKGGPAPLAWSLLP
SIK2, sequence (Q9H0K1 whole entry): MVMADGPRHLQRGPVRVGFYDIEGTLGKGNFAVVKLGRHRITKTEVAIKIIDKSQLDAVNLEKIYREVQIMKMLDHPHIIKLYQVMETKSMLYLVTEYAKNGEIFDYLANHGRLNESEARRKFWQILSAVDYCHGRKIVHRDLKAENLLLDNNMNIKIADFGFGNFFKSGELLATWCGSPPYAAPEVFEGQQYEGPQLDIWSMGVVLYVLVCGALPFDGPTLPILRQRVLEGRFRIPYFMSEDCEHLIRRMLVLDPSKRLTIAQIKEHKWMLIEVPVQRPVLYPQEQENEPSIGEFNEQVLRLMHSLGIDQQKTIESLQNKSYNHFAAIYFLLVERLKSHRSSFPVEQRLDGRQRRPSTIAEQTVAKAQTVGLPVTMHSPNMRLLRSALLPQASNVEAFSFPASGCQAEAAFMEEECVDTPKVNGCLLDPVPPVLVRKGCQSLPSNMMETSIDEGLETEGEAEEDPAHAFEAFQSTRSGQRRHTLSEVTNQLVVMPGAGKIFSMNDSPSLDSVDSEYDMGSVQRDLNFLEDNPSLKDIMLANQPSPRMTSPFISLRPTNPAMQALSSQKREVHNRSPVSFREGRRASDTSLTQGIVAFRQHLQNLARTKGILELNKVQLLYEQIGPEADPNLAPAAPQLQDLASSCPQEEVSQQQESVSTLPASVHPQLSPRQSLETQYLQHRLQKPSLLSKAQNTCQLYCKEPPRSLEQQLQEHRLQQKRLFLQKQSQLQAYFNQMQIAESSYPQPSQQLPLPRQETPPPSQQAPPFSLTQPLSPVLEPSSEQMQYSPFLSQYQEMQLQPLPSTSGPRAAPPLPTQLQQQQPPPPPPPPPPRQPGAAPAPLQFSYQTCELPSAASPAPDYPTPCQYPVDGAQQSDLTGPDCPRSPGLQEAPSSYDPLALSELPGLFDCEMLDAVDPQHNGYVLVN
p38 MAPK, sequence (Q16539 whole entry): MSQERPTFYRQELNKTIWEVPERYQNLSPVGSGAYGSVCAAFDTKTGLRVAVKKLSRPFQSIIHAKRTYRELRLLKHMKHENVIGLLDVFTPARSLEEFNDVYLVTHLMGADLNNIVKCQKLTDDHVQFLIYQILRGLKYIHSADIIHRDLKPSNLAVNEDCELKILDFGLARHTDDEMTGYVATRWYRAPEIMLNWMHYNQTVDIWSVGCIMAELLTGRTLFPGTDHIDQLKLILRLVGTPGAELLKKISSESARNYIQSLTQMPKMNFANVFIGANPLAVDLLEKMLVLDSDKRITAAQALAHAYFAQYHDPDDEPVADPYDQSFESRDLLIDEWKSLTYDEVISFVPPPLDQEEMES
Procedure for PIM1: (§2) The affinities of the compounds toward the PIM family PKs were determined in a binding/displacement assay with measurement of fluorescence anisotropy (FA) and time-gated luminescence intensity (TGLI) (Table 2). For the initial assessment of the selectivity of compounds, PKAcα was used as the reference basophilic kinase [10].
(§3) Optical FA measurement modules for 5-TAMRA-labeled compounds (ex. 540(20) nm, em. 590(20) nm and 590(20) nm), for Cy5-labeled compounds (ex. 590(50) nm, em. 675(50) nm and 675(50) nm), and optical TGLI measurement modules for ARC-1451 (ex. 330(60) nm, em. 590(50) nm), for ARC-1188 (ex. 330(60) nm, em. 675(50) nm) were used for assays with PHERAstar microplate reader (BMG Labtech; Ortenberg, Germany). TGLI measurements were performed with a delay time of 50 μs and integration of the signal for 150 μs. In each measurement, emission from 200 flashes of excitation radiation was collected. The measurement solutions (20 µL volumes) were prepared in black 384-well low-binding surface microtiter plates (Corning #4514; Kennebunk, ME, USA) and incubated for 20 min at 30 °C before the measurements. The assay buffer contained HEPES hemisodium salt (pH 7.4, 50 mM), NaCl (150 mM), dithiothreitol (5 mM), bovine serum albumin (0.5 mg/mL), and Tween-20 (0.005%). […] 5.04 (GraphPad Software, Inc.) was used for data analysis with FA [32] or TGLI [33] readouts.
Procedure for PIM2: as §2, §3
Procedure for PIM3: as §2, §3

On to `N=C(N)NCCC[C@@H](NC(=O)CCCCCNC(=O)Cn1cnc2c(I)c(I)c(I)c(I)c21)C(=O)N[C@H](CCCNC(=N)N)C(=O)N[C@H](CCCNC(=N)N)C(=O)N[C@H](CCCNC(=N)N)C(=O)N[C@H](CCCNC(=N)N)C(=O)N[C@H](CCCNC(=N)N)C(=O)N[C@H](CCCCN)C(N)=O` [ARC-3125, TIBI-CH2-C(=O)-Ahx-(D-Arg)6-D-Lys-NH2], for which the remaining activity at 1 µM in the data set with ZAP70 was 105 ± 8%; with MLK3 it was 98 ± 2%; with p38 MAPK, 53 ± 8%; with TTBK2, 101 ± 24%; with SIK2 it was 34 ± 4%; with DYRK3 it was 22 ± 2%. Moreover, the remaining activity at 1 µM in the data set with ERK5 turned out to be 47 ± 1%.

Take `N=C(N)NCCC[C@@H](NC(=O)CCCCCNCc1nc2c(sc3cc(Br)cnc32)c(=O)[nH]1)C(=O)N[C@H](CCCNC(=N)N)C(=O)N[C@H](CCCNC(=N)N)C(=O)N[C@H](CCCNC(=N)N)C(=O)N[C@H](CCCNC(=N)N)C(=O)N[C@H](CCCNC(=N)N)C(=O)N[C@H](CCCCN)C(N)=O` [ARC-3126, BPTP-Ahx-(D-Arg)6-D-Lys-NH2] (X3-[dR][dR][dR][dR][dR][dR][dK]-NH2): the remaining activity at 1 µM was 83 ± 30% in the data set with ZAP70; 117 ± 10% with MLK3; 116 ± 4% with p38 MAPK; 77 ± 2% in the data set with TTBK2; 109 ± 6% with SIK2; 82 ± 1% with DYRK3. The remaining activity at 1 µM in the data set with ERK5 amounted to 92 ± 1%. Besides, the Kd is 1.8 ± 0.7 nM at PIM1; more than 18500 nM on PKAcα (setting [1]); more than 18000 nM on PKAcα (read-out: KD toward PKAcα); 2.9 ± 0.5 nM on PIM2; 2 ± 0.5 nM on PIM3.

Take `N=C(N)NCCC[C@@H](NC(=O)CNC(=O)[C@@H](CCCNC(=N)N)NC(=O)[C@@H](CCCNC(=N)N)NC(=O)CCCCCCCNCc1nc2c(sc3cc(Br)cnc32)c(=O)[nH]1)C(=O)N[C@H](CCCCN)C(N)=O` [Compound 1, BPTP-Aoc-(D-Arg)2-Gly-D-Arg-D-Lys-NH2]: the remaining activity at 1 µM with ZAP70 worked out at 95 ± 21%; with MLK3, 105 ± 5%; with p38 MAPK it was 113 ± 10%; with TTBK2 it was 109 ± 6%; in the data set with SIK2, 110 ± 5%; with DYRK3, 43 ± 6%. Further, the remaining activity at 1 µM with ERK5 worked out at 111 ± 9%. In addition, the Kd on PIM1 was found to be 11.4 ± 1 nM; at PKAcα (setting [1]), 2250 ± 411 nM; at PIM2, 64 ± 8 nM; on PIM3, 5.2 ± 1 nM.

As for `N=C(N)NCCC[C@@H](NC(=O)CNC(=O)[C@@H](CCCNC(=N)N)NC(=O)[C@@H](CCCNC(=N)N)NC(=O)CCCCCCCNCc1nc2c(sc3ccc(Br)cc32)c(=O)[nH]1)C(=O)N[C@H](CCCCN)C(N)=O` [Compound 2, BBTP-Aoc-(D-Arg)2-Gly-D-Arg-D-Lys-NH2], the remaining activity at 1 µM turned out to be 87 ± 7% with ZAP70; 107 ± 1% in the data set with MLK3; 116 ± 10% with p38 MAPK; 125 ± 12% with TTBK2; 107 ± 10% in the data set with SIK2; 34 ± 2% in the data set with DYRK3. For the same molecule, the remaining activity at 1 µM with ERK5 came to 77 ± 5%. The Kd at PIM1 turned out to be 0.4 ± 0.1 nM; on PKAcα (setting [1]) it was 853 ± 28 nM; at PIM2, 3.8 ± 0.2 nM; on PIM3, 2 ± 0.4 nM.

Take `N=C(N)NCCC[C@@H](NC(=O)CNC(=O)[C@@H](CCCNC(=N)N)NC(=O)[C@@H](CCCNC(=N)N)NC(=O)Cn1cc(CNCc2nc3c(sc4ccc(Br)cc43)c(=O)[nH]2)nn1)C(=O)N[C@H](CCCCN)C(N)=O` [Compound 3, BBTP-Amt-(D-Arg)2-Gly-D-Arg-D-Lys-NH2]: the remaining activity at 1 µM with ZAP70 is 53 ± 14%; in the data set with MLK3 it was 94 ± 2%; with p38 MAPK, 110 ± 7%; with TTBK2, 105 ± 15%; with SIK2, 68 ± 3%; with DYRK3 it was 55 ± 4%. In addition, the remaining activity at 1 µM in the data set with ERK5 amounted to 93 ± 4%. Also, the dissociation constant (Kd) was 0.7 ± 0.2 nM at PIM1, 1500 ± 266 nM on PKAcα (setting [1]), 9.9 ± 0.8 nM on PIM2 and 7 ± 1 nM at PIM3.

Consider `CN(C)c1ccc2c(c1)Oc1cc(N(C)C)ccc1C21OC(=O)c2cc(C(=O)NCCCC[C@@H](NC(=O)[C@@H](CCCNC(=N)N)NC(=O)CNC(=O)[C@@H](CCCNC(=N)N)NC(=O)[C@@H](CCCNC(=N)N)NC(=O)CCCCc3cn(Cc4nc5c(sc6ccc(Br)cc65)c(=O)[nH]4)nn3)C(N)=O)ccc21` [Compound 8, BBTP-Tap-(D-Arg)2-Gly-D-Arg-[D-Lys(5-TAMRA)]-NH2], for which the Kd was 20.5 ± 4 nM at PIM1, more than 1020 nM at PKAcα (setting [1]), 157 ± 39 nM at PIM2 and 15.7 ± 3 nM at PIM3.
